Test results: the Immune Epitope Database (IEDB)

How the values were obtained:
[1] = target: HLA-A*02:02; assay: IEDB peptide-MHC binding, purified MHC/competitive/radioactivity; ≥ and ≤ were set here for values at or beyond the usual limits of such assays; conditions: source organism: Human immunodeficiency virus type 1 (isolate YU2)
[2] = target: HLA-A*02:03; assay: as above
[3] = target: HLA-A*68:02; assay: as above; conditions: source organism: Human immunodeficiency virus type 1 (isolate YU2)
[4] = target: HLA-A*02:06; assay: IEDB peptide-MHC binding, purified MHC/competitive/radioactivity; filed as Kd, often an IC50 or EC50 that approximates it; ≥ and ≤ were set here for values at or beyond the usual limits of such assays; conditions: source organism: Human immunodeficiency virus type 1 (isolate YU2)
[5] = target: HLA-A*02:06; assay: IEDB peptide-MHC binding, purified MHC/competitive/radioactivity; ≥ and ≤ were set here for values at or beyond the usual limits of such assays
[6] = target: HLA-A*02:02; assay: IEDB peptide-MHC binding, purified MHC/competitive/radioactivity; filed as Kd, often an IC50 or EC50 that approximates it; ≥ and ≤ were set here for values at or beyond the usual limits of such assays
[7] = target: HLA-A*68:02; assay: as above
[8] = target: HLA-A*02:03; assay: as above; conditions: source organism: Human immunodeficiency virus type 1 (isolate YU2)
[9] = source organism: Human immunodeficiency virus type 1 (isolate YU2)
[10] = source organism: Human immunodeficiency virus 1

| Sequence | IC50 [1] | IC50 [2, 9] | IC50 [3] | IC50 [5, 9] | further results |
| --- | --- | --- | --- | --- | --- |
| LTFGWCFKLV | 48.9 nM | 185 nM | 6.2 nM |  |  |
| ILKEPVHGV |  |  |  |  | Kd [4]: ≥ 37000 nM |
| MASDFNLPPV | 22.6 nM | 55.6 nM | 18.2 nM | 33.6 nM |  |
| KAACWWAGI |  | 83.3 nM |  | 161 nM | Kd [6, 9]: 1080 nM |
| RILQQLLFI |  | 125 nM |  | 37 nM | Kd [6, 9]: 1540 nM; Kd [7, 9]: 1.82 µM |
| LVGPTPVNI | 154 nM | 19.2 nM | 67.8 nM |  | Kd [4]: 2850 nM |
| VLAEAMSQV | 82.7 nM | 15.2 nM |  | 116 nM |  |
| KMIGGIGGFI | 54.4 nM | 4.8 nM |  | 771 nM | Kd [7, 9]: 3.33 µM |
| LLQLTVWGI | 215 nM | 43.5 nM | 645 nM | 24.7 nM |  |
| LTFGWCFKL | 33.1 nM |  | 5.6 nM | 206 nM | Kd [8]: 4.55 µM |
| AIIRILQQL | 22.6 nM | 41.7 nM | 548 nM | 38.5 nM |  |
| MTNNPPIPV |  | 33.3 nM | 12.1 nM |  | Kd [6, 9]: 7170 nM; Kd [4]: 1610 nM |
| SLLNATDIAV |  |  |  |  | IC50 [2, 10]: 238 nM; IC50 [5, 10]: 28.5 nM; Kd [6, 10]: 1300 nM; Kd [7, 10]: 5.48 µM |
